According to publication PMC6677536 (2019):

B1: Full-length Nxf2, 3xFLAG-tagged [D. melanogaster] / Full-length Panx, HA-tagged [D. melanogaster] (parent complex)
chain 1: MPNQMRVLDFGDGSVPIQLDYPDSKIFSKCSSYGDRVPGTHWNEITVHHKGRLEYSPNPEQIILDALYQAIDGADFFPVFYQRGKNMDTMLVRNCKAAIDKLFKQRLSINLKGGASIPISIQLGVAQYQRHQITPTFHIARVVTRLMKQLIQRDGVDGLLNLDNFGSHPEFKNLVVSLGNPSILMNVCQVIHNDDNERFRLNGFILSNNRIRDIRPLTLLANVDYALLDLRGNKIKSAERLCRALEQFRARELLLENNPIVKISNFPANIKSLESNFELVDGKPFNMLHKIFSPLDVEIDLEVDGARIDTNNMWKLPEFENSQHWHAFMIPDPSHEFNQEVFFDFFFIRLDPTLSNFYPCYYKYINTEHVFLVRNCFDQIAHLVNNCNLEMTIPTGDRIFRYYLRMNVSTVKQHHVDPEECIQKAVSQCYVAQNRMLNLERFHSRECLKDVMVSLSSPKILTYVLSVASRKFMTTCSEIRLCHNKVLVLDGAHVLGMMGCLRAVDLSHNWVQDLSSIHSLGNLPLKSLVLHGNKLCRNYRLPSEYVRAVKEVFPQLTTLDGVDLQTNPGQSLQKNFLCDTGAYELVGAFLENYLREFENDEFRHNLYKYYSENSIFTLTCNYNVVQNHQTPKILQRLSKYNRHARNLRNKDYSKASDGVFFGCTYIVEILLQLPRVTHDFHSLQTDVMHYNGKGAVIYVAGLLRDEPPSTRNGHGSKTDIGGVLLGFSRQFVVTFDEANLGLGKRARRLKIANERLHITNPSKTAIRNAFSVNFPDPSERQAEEDSLDVKDHKLLLFQEVTGLISTWVTSIVEEADWDFERALKLFIQKNADHEIPDLAFA
chain 2: MEAPMKLEVKVENYVECGINEDEATPLREGTGETPPHAFACGVPMSGSGWCSDPEDGNLVHHSATPTSDEHLQPSLDTIEPKMEPKIKEDADNAMLDSLLADPFENNSPATLQTPADVKPNAMLDSVEQGSRSCELLPSEFSKRENLDDMDLFSLKAAKTLVPDEQQSFPQNDTPIDDPEAADLIAQKREILKMLEMTAENRKVKHKKKKHKKERSHRSNKHQEESRKRNHSNSSSDEGADDKNQFDCDYRGHKKYKNRRGSASSQNESSKERKLRDTELDYVPVRPDEHFIRPIKFSNLIERRPPQVEFNTVNLSKADKRSLAVARAELVLEQIQQKANKEEPPEFHMVDTICKLPVNESFRNQDCFENPSPICNNMNVVYKFNSTPGTRIDLSKWGLETVPEATKRLLRLLGIDVARLKELQSTVKPSQRILKLKKEQLEQGLAPTEEQETATLYKNAATQTERRTATRDAGTQVRLESKLNGAFWQNPHFDPMNLTQHQSNVMLALQEIYQTLPSATMAVKLSRALAPALAIIKGRQP

Variants of: B1
Test: FLAG-tag co-immunoprecipitation, western blot quantification; lysates of transfected S2 cells; read off a plot

**Q.** How did the log10 ratio turn out when chain 1 R755G was run?
**A.** The log10 ratio was ~-0.45 log10 coIP index [arbitrary unit].
